Reference: US20210122815A1 (AKESO BIOPHARMA, published 2021)

Target: IL-17A (24-155) protein (human, UniProt Q16552 24-155)
Assay: indirect ELISA screening of hybridomas

Chain of IL-17A (24-155) protein (Q16552 24-155): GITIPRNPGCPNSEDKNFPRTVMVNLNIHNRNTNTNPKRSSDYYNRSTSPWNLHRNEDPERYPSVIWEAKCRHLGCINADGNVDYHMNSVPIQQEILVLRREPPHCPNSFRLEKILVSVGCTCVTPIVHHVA

B1: monoclonal murine antibody 13E9 (antibody, V domains shown)
VH: EVKLQESGPGLVKPSQSLSLTCTVTSYSFTSDYAWSWIRQFPGIKLEWMGYITYSGVTSYNPSLKSRISITRDTSKNQFFLQLNSVTTEDTATYYCARADYDSYYTMDYWGQGTSVTVSS
VL: DIQLTQSPLSLPVSLGDQASISCRSSQSLVHSNGNTYLHWYLQKPGQSPRLLIYKVSNRFSGVPDRFSGSGSGTDFTLKISRVEAEDLGVYFCSQSTHFWTFGGGTKLEIK
notes: Mouse hybridoma antibody purified on protein A; also called antibody secreted by hybridoma cell line LT006 (IL-17A-13E9)
B1: binds.

B2: monoclonal murine antibody 2G2 (antibody, V domains shown)
VH: EVQLEQSGSELRSPGSSVKLSCKDFDSEVFPIADMSWVRQKPGHGFEWIGDILPSFGRTIYGEKFEDKAKVDADTVSNTAYLELNSLTSEDSAIYYCARGNYGFAYWGQGTLVTVSA
VL: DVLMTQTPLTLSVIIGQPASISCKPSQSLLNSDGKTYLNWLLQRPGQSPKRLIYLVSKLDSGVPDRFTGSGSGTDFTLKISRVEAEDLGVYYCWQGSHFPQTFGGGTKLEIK
notes: Mouse hybridoma antibody purified on protein A; also called antibody secreted by hybridoma cell line LT007 (IL-17A-2G2)
B2: binds.
